Experimental findings from US20150057436A1 (ARGEN X, published 2015) are described below.

One may read the IC50 as the concentration needed to halve the response being measured. The low end stands for inhibition by little substance, the high end for a need for much substance.

Test [1] addresses T1, human IL-1 Beta (human, UniProt P01584 117-269, biotinylated in the Fab, phage and competition ELISAs).
T1 construct: also called biot-IL-1 Beta; biotinylated IL-1 Beta
Put plainly: ELISA: Fab captured on anti-myc plate, biot-IL-1 Beta, streptavidin-HRP. How it is done: For this the Fabs were captured on an anti-myc coated Maxisorp plate. Biotinylated human IL-1 Beta was added and bound cytokine was detected using HRP-conjugated streptavidin.
The genes of these Fabs were ordered as synthetic genes with GeneArt (Germany) and were subsequently produced in E. coli, purified and tested for their ability to bind biot-IL-1 Beta. For this the Fabs were captured on an anti-myc coated Maxisorp plate. Biotinylated human IL-1 Beta was added and bound cytokine was detected using HRP-conjugated streptavidin. The read out of this assay is represented in FIG. 3 below. [0459] […] [0460] Partial (wt Vλ/safe VH) and complete (wt Vλ/hum VH) humanization of the VH domain of 1E2 generated a functional Fab.
On the technique in general: In an ELISA, binding on a coated surface is turned into a signal by an enzyme label.

The target of another test is T2, neutravidin (UniProt P02701 25-152).
T2 construct: Capture protein of the phage ELISA, tested alone as the negative control
The experiment in a line: phage ELISA on neutravidin coated wells, crude phage extract, anti-M13-HRP. How it is done: (§1) The humanized variants of clone 1F2 were tested with phage expressing gene3-Fabs fusions (FIG. 4). Phage were produced from 4 independent clones for each construct: [0462] wt 1F2 and wt 1E2 (llama Vλ and VH fused to human CA and CH1) [0463] safe variant 1F2 and safe variant 1E2 (partially humanized Vλ fused to human CA and CH1) [0464] hum 1F2 and hum 1E2 (fully humanized Vλ and VH fused to human CA and CH1)
(§2) Four clones for each Fab were tested to overcome clonal variation (due to bacterial growth, phage production efficiency and toxicity etc. . . . ). Phage ELISA was performed by capturing of biotinylated IL-1 Beta on neutravidin coated Maxisorp plate and subsequent incubation of crude phage extract (i.e. bacterial medium). After extensive washing, bound phages were detected with an anti-M13-HRP monoclonal antibody. […] [0466] Back mutations in the framework regions of 1F2 VL and VH domains to the closest human germline successfully yield partially (safe) and fully (hum) humanized variants, maintaining antigen specificity. Successful Formatting of Camelid Variable Domains with Human Constant Domains

The target in test [2] is T1, human IL-1 Beta. Put plainly: competition ELISA, periplasmic Fab extract; competitor: coated blocking mouse mAb; OD of biot-IL-1 Beta bound.
Target sequence in this assay (P01584 117-269 limits assumed): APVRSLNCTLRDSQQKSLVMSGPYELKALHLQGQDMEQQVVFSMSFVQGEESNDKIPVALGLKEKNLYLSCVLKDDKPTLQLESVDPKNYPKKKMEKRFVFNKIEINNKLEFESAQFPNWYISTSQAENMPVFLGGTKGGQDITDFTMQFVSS
Test [3] has as its target T1, human IL-1 Beta. Put plainly: cell-based or functional assay.
Target sequence in this assay (P01584 117-269 limits assumed): as above
Test [4] concerns the target T1, human IL-1 Beta. The experiment in a line: ELISA based competition assay; competitor: antagonistic reference mouse mAb.
Target sequence in this assay (P01584 117-269 limits assumed): as above
Test [5] addresses T1, human IL-1 Beta. Put plainly: phage ELISA: biot-IL-1 Beta captured on neutravidin, crude phage, anti-M13-HRP. How it is done: as §1, §2

Changes are numbered by the printed parent chain. Some results are limits rather than exact numbers.

T2 sequence (P02701 25-152): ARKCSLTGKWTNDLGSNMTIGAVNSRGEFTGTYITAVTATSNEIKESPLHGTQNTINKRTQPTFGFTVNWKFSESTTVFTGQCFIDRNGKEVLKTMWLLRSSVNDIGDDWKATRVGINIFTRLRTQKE

B1: wild type llama 1E2 Fab (Fab, V domains shown)
VH: EVQLVESGGGLVQPGGSLRLSCTASGFTFSNYWMYWVRQAPGKGLEWVSAINAAGSTYYADSVKGRFTISRDNAKNTLYLQMNSLQSEDTALYYCANLPRWGQGTQVTVSS
VL: QTVVTQEPSLSVSPGGTVTLTCGLSSGSVTSGNYPGWYQQKPGQAPRTLIYNTNSRYSGVPNRFSGSISGNKAALTITGAQPEDEADYYCAVYIGSSSYPVVFGGGTHLTVL
notes: Llama variable and llama constant domains, produced from pCB3; captured through its myc tag; also called Fab 1E2
Regarding B1, in the test with human IL-1 Beta [1], the binding result was “binds”.

B2: chimeric 1E2 Fab (llama Vλ and VH fused to human Cλ and CH1) (Fab, V domains shown)
VH: B1 VH
VL: B1 VL
notes: VH fused to human CH1, Vλ fused to human Cλ; produced in E. coli from pCB5; myc tag; also called wt 1E2
As for B2, the binding result in the test with human IL-1 Beta [1] is reported as “binds”.

B3: wt 1E2 (llama Vλ and VH fused to human Cλ and CH1), phage expressing gene3-Fab fusion (Fab, V domains shown)
VH: B1 VH
VL: B1 VL
As to B3, the binding result with neutravidin is “no binding”.

B4: hum 1E2 (fully humanized Vλ and VH fused to human Cλ and CH1), phage expressing gene3-Fab fusion (Fab, V domains shown)
VH: B1 VH with T23A, A74S, Q86R, S87A, L92V, Q106L
VL: B1 VL with L10F, K41T, Y57S, N62D, S69L, P82A, E83D, A86S, H108K
Regarding B4, the binding result with neutravidin was “no binding”.

B5: 1E2 Fab wt Vλ/hum VH (Fab, V domains shown)
VH: B1 VH with T23A, A74S, Q86R, S87A, L92V, Q106L
VL: B1 VL
notes: also called wt/hum
Take B5: the binding result in the test with human IL-1 Beta [1] was “binds”.

B6: 1E2 Fab wt Vλ/safe VH (Fab, V domains shown)
VH: B1 VH with T23A, A74S, L92V
VL: B1 VL
notes: also called wt/safe
B6: the binding result with human IL-1 Beta [1] is reported as “binds”.

B7: Fab 1C3 (Fab, part only; not given: lambda light chain, V domains shown, not shown: a dimerising Fc or GST)
VH: EVQLVESGGGLVQPGGSLRLSCAASGFTFSSYWMYWVRQAPGKGLEWVSAINTGGGRTYYADSVKGRFTISRDNAKNTLYLQMNSLKSEDTAVYYCAKGTSADGSSWYVPADPYDYWGQGTQVTVSS
Consider B7, for which the OD with human IL-1 Beta [2] turned out to be 0.386 OD. Besides, the IC50 in the bioassay in the test with human IL-1 Beta [3] is 3 µg/mL. In addition, the concentration at which competition is seen with human IL-1 Beta [4] was > 50 µg/mL.

B8: Fab 1A1 (Fab, part only; not given: lambda light chain, V domains shown, not shown: a dimerising Fc or GST)
VH: EVQLVESGGGLVQPGGSLRLSCAASGFTFDDYAMSWVRQAPGKGLEWVSTISWNGGATYYAESMKGRFTISRDNAKNTLYLQMNSLKSEDTAVYYCAKPYYSDYVGVEYDYWGQGTQVTVSS
In the test with human IL-1 Beta [2], B8 showed an OD of 0.205 OD. Further, the IC50 in the bioassay with human IL-1 Beta [3] worked out at 10 µg/mL. Further, the IC50 in the test with human IL-1 Beta [4] was found to be 12 µg/mL.

B9: hum 1F2 (fully humanized Vλ and VH fused to human Cλ and CH1), phage expressing gene3-Fab fusion (Fab, V domains shown)
VH: EVQLLESGGGLVQPGGSLRLSCAASGFTFSTYAMSWVRQAPGKGLEWVSGINTGGGSTGYADSVKGRFTISRDNSKNTLYLQMNSLRAEDTAVYYCAKDWMATTPWGQGTLVTVSS
VL: QTVVTQEPSFSVSPGGTVTLTCGLSSGSVTTNNYPGWYQQTPGQAPRTLIYNTNNRSSGVPDRFSGSILGNKAALTITGAQADDESDYYCALYMSSGSNNAVFGGGTKLTVL
notes: also called fully (hum) humanized 1F2
With B9, the binding result is “no binding” with neutravidin and “binds” with human IL-1 Beta [5].

B10: Fab 1B3 (Fab, part only; not given: lambda light chain, V domains shown, not shown: a dimerising Fc or GST)
VH: EVQLVQSGAELRNPGASVKVSCKASGYTFTSYYIDWVRQAPGQGLEWMGRIDPEDGGTKYAQKFQGRVTFTADTSTSTAYVELSSLRSEDTAVYYCARSGRYELDYWGQGTQVTVSS
In turn, B10 showed an OD with human IL-1 Beta [2] of 0.444 OD.

B11: Fab 1G1 (Fab, part only; not given: lambda light chain, V domains shown, not shown: a dimerising Fc or GST)
VH: B10 VH with I34T, G57D, S84T, A97L, R101A
B11: the OD with human IL-1 Beta [2] was found to be 0.498 OD.
